PMC9943680 (Nucleic Acids Research, 2023)

Experiments:
TR4DBD-CTE R191A = target: T1, TR4DBD-CTE R191A (Homo sapiens, UniProt P49116 113-200, R191A); test: MST
T1 sequence: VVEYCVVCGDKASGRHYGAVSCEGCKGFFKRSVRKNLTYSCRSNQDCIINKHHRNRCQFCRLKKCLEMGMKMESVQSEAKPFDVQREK

TR4DBD-CTE S189A = target: T2, TR4DBD-CTE S189A (Homo sapiens, UniProt P49116 113-200, S189A); test: MST
T2 sequence: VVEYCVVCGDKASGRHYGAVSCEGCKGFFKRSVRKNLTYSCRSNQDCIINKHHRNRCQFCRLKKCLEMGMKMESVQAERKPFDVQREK

TR4DBD-CTE R168A = target: T3, TR4DBD-CTE R168A (Homo sapiens, UniProt P49116 113-200, R168A); test: MST
T3 sequence: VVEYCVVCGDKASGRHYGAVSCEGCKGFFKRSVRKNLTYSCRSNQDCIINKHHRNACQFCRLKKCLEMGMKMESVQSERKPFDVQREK

TR4DBD-CTE N167K = target: T4, TR4DBD-CTE N167K (Homo sapiens, UniProt P49116 113-200, N167K); test: MST
T4 sequence: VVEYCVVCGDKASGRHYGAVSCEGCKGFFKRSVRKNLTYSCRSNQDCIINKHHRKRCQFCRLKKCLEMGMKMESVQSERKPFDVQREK

TR4DBD-CTE R127C = target: T5, TR4DBD-CTE R127C (Homo sapiens, UniProt P49116 113-200, R127C); test: MST
T5 sequence: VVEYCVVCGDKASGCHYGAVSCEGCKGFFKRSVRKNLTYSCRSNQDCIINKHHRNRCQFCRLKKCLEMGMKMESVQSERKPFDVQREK

[1] = target: T6, TR4_(341–596), ligand-binding domain of human testicular receptor 4 (human, UniProt P49116 341-596); test: crystal structure
T6 sequence (looked up): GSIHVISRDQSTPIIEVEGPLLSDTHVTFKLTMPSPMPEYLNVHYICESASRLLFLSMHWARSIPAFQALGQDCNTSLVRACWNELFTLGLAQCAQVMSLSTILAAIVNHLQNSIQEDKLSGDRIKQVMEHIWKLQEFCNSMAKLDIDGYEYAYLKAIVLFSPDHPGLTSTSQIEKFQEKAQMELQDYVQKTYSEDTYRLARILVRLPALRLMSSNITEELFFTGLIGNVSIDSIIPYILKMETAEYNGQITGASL

TR4DBD = target: T7, TR4DBD (Homo sapiens, UniProt P49116 113-189); test: MST
T7 sequence: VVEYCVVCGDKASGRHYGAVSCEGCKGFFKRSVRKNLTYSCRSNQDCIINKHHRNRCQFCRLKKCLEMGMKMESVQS

B1: idRE, 23 bp DR1 (dsDNA)
DNA 1: GGCAGAGGTCAAAGGTCAAACGT
DNA 2: ACGTTTGACCTTTGACCTCTGCC
With B1 the binding signal (TR4DBD-CTE R191A) was about 60 fold decrease vs WT, the binding signal (TR4DBD-CTE S189A) was 12 fold decrease vs WT and the binding signal (TR4DBD-CTE R168A) was 12 fold decrease vs WT. For the same binder, the binding signal (TR4DBD-CTE N167K) was over 60 fold increase vs WT and the binding signal (TR4DBD-CTE R127C) was about 280 fold increase vs WT.

QQPTYVALSYINRFMTDAARREQES (domain or fragment, human, UniProt Q86VZ6 51-75, looked up) [JAZF1_(51–75)]: binds [1].

B2: 18 bp DR1 (dsDNA)
DNA 1: GGCAGAGGTCAAAGGTCA
DNA 2: CTGACCTTTGACCTCTGC
In the case of B2, the Kd (TR4DBD) is reported as 38.3 µM.
